Test results: patent EP4582451A1 (Changchun Genescience Pharmaceutical Co., Ltd., dated 2025)
Like-named read-outs stand apart in the source and are kept apart here.

Tests used:
[1] = target: T1, monkey thyroid-stimulating hormone receptor (TSHR) (monkey, UniProt A0A2K5X226 21-764); test: flow cytometry (FACS), 293 cells overexpressing monkey TSHR
T1 construct: Overexpressed on 293 cells; also called monkey TSHR

[2] = target: T2, human thyroid-stimulating hormone receptor (TSHR) (human, UniProt P16473 21-764); test: cell-based or functional assay
T2 sequence (P16473 21-764): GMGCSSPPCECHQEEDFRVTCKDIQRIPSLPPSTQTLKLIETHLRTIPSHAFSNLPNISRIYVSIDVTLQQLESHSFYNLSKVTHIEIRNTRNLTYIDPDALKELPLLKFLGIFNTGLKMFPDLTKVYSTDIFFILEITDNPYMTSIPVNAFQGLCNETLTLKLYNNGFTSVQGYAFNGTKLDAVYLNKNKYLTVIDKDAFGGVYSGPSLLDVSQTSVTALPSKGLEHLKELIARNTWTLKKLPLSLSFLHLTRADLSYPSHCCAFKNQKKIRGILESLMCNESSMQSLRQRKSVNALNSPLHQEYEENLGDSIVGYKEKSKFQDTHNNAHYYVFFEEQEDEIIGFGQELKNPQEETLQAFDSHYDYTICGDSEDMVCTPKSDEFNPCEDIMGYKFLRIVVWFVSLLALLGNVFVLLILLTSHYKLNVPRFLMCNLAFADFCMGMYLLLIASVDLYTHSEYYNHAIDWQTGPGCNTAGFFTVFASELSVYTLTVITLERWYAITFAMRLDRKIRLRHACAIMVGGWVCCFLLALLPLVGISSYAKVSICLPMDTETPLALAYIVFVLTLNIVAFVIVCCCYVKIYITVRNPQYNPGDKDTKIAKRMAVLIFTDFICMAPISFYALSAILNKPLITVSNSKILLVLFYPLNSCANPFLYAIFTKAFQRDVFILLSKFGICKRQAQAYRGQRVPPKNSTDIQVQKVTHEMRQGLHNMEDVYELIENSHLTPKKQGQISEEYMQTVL

[3] = target: T3, hFcRn-Avi (Biosystems, FCM-H82W7) (human (printed as hFcRn), UniProt P55899 24-297; P61769 21-119, biotin on the Avi tag is implied by capture on an SA chip); test: SPR (Biacore 8K+), hFcRn-Avi captured on SA chip, antibody in flow, pH 6.0, 25 C, steady-state fit
T3 construct: Bought reagent

[4] = target: T4, mouse thyroid-stimulating hormone receptor (TSHR) (mouse, UniProt P47750 22-764); test: flow cytometry (FACS), 293 cells overexpressing mouse TSHR
T4 construct: whole, on cells; Overexpressed on 293 cells; also called mouse TSHR; murine TSHR
T4 sequence (P47750 22-764): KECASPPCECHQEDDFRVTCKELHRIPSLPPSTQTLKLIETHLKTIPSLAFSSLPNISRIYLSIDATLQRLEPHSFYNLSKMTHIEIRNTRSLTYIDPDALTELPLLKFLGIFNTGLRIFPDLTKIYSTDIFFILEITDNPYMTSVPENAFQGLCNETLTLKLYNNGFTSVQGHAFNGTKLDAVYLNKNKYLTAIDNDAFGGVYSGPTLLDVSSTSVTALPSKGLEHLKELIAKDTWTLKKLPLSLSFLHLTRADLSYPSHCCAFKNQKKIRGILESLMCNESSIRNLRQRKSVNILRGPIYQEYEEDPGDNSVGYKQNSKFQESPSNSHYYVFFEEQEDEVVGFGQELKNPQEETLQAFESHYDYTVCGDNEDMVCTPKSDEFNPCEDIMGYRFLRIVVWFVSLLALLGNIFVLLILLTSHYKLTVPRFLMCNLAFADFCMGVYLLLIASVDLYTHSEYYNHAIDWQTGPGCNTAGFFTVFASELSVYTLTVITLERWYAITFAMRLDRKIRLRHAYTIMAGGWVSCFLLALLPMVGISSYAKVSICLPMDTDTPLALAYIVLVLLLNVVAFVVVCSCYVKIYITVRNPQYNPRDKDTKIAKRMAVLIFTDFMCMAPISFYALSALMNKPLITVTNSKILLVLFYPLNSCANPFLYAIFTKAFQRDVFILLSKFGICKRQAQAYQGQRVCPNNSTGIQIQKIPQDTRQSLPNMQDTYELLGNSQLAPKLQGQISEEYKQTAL

[5] = target: T2, human thyroid-stimulating hormone …; test: cell-based or functional assay; remark: listed apart in the source
[6] = target: T4, mouse thyroid-stimulating hormone …; test: flow cytometry (FACS), 293 cells overexpressing mouse TSHR; remark: listed apart in the source
[7] = target: T1, monkey thyroid-stimulating hormone …; test: flow cytometry (FACS), 293 cells overexpressing monkey TSHR; remark: listed apart in the source
[8] = target: T2, human thyroid-stimulating hormone …; test: flow cytometry (FACS), 293 cells overexpressing human TSHR
[9] = target: T2, human thyroid-stimulating hormone …; test: as above; remark: listed apart in the source
[10] = target: T2, human thyroid-stimulating hormone …; test: cell-based or functional assay; remark: listed apart in the source

T1 sequence (A0A2K5X226 entry or part of it limits assumed, form in doubt): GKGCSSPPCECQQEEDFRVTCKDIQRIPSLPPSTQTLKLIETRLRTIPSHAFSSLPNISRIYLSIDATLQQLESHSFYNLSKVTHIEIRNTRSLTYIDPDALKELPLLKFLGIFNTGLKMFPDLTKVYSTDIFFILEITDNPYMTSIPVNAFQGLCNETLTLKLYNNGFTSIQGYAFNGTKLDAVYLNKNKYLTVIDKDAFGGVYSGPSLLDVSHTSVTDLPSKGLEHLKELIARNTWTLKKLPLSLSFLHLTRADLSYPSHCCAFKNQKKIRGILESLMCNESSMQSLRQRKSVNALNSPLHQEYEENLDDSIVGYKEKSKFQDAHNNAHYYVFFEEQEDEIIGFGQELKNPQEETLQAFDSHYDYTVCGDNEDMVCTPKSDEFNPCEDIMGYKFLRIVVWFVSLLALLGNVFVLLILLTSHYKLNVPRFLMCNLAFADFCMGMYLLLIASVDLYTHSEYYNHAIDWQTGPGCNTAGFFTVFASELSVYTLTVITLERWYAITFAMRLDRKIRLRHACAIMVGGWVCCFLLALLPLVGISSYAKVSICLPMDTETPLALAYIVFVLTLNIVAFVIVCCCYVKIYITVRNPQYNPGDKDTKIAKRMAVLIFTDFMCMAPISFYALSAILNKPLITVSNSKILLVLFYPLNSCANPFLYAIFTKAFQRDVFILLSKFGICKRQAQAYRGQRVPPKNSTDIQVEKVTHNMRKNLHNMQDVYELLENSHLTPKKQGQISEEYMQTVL

Row | Binder | EC50 [1] [nM] | Maximum binding signal [1] | IC50(nM), cAMP in 293-human TSHR cells activated by Tab01 (30 nM) [2] [nM] | IC50(nM), cAMP in 293-human TSHR cells activated by Tab02 (6.5 nM) [2] [nM] | Kd [3] [nM] | Response value (RU) [3] [RU] | EC50 [4] [nM] | Maximum binding signal [4] | IC50 (nM), cAMP in 293-human TSHR cells activated by Tab01 [5] [nM] | IC50 (nM), cAMP in 293-human TSHR cells activated by Tab02 [5] [nM] | Maximum inhibition rate (%), cAMP in 293-human TSHR cells activated by Tab01 [5] [%] | Maximum inhibition rate (%), cAMP in 293-human TSHR cells activated by Tab02 [5] [%] | EC50 [6] [nM] | Max_MFI [6] | EC50 [7] [nM] | Max_MFI [7] | EC50 [8] [nM] | Max_MFI [8] | also measured
1 | humanized antibody cAb01-VH2-DA-VL3 (named hAb01_G4P) (antibody, human IgG4 S228P, kappa) heavy: not shown light: EIVLTQSPATLSLSPGERATLSCSASSSVSYMHWYQQKPGQAPKRWIYDTSKLASGVPARFSGSGSGTDYTLTISSLEPEDFAVYYCQQWSSNPWTFGGGTKLEIKRTVAAPSVFIFPPSDEQLKSGTASVVCLLNNFYPREAKVQWKVDNALQSGNSQESVTEQDSKDSTYSLSSTLTLSKADYEKHKVYACEVTHQGLSSPVTKSFNRGEC | 2.6 | 193000 | 2.2 | 2.2 | 343 | 35.8 | 3.22 | 123000 | 2.28 | 2.4 | 102 | 94.2 | – | – | – | – | – | – | –
2 | hAb01_G1_V4 (antibody, human IgG1, kappa, L234A L235A) heavy: EVQLVESGGGLVKPGGSLRLSCAASGFTLSDYYIYWVRQAPGKGLEWVATISDAVIYTYYADSVKGRFTISRDNAKNSLYLQMNSLRAEDTAVYFCARAYGSSEVMDYWGQGTLVTVSSASTKGPSVFPLAPSSKSTSGGTAALGCLVKDYFPEPVTVSWNSGALTSGVHTFPAVLQSSGLYSLSSVVTVPSSSLGTQTYICNVNHKPSNTKVDKKVEPKSCDKTHTCPPCPAPEAAGGPSVFLFPPKPKDTLYITREPEVTCVVVDVSHEDPEVKFNWYVDGVEVHNAKTKPREEQYNSTYRVVSVLTVLHQDWLNGKEYKCKVSNKALPAPIEKTISKAKGQPREPQVYTLPPSRDELTKNQVSLTCLVKGFYPSDIAVEWESNGQPENNYKTTPPVLDSDGSFFLYSKLTVDKSRWQQGNVFSCSVMHEALHNHYTQKSLSLSPGK light: EIVLTQSPATLSLSPGERATLSCSASSSVSYMHWYQQKPGQAPKRWIYDTSKLASGVPARFSGSGSGTDYTLTISSLEPEDFAVYYCQQWSSNPWTFGGGTKLEIKRTVAAPSVFIFPPSDEQLKSGTASVVCLLNNFYPREAKVQWKVDNALQSGNSQESVTEQDSKDSTYSLSSTLTLSKADYEKHKVYACEVTHQGLSSPVTKSFNRGEC | – | – | – | – | 90 | 94.5 | – | – | 5.4 | 2.04 | 94 | 91.1 | 2.75 | 178000 | 2.77 | 244000 | 4.4 | 371000 | –

Now from value to binder, other results behind:

Row | EC50 [1] [nM] | Maximum binding signal [1] | IC50(nM), cAMP in 293-human TSHR cells activated by Tab01 (30 nM) [2] [nM] | IC50(nM), cAMP in 293-human TSHR cells activated by Tab02 (6.5 nM) [2] [nM] | Kd [3] [nM] | Response value (RU) [3] [RU] | EC50 [4] [nM] | Maximum binding signal [4] | IC50 (nM), cAMP in 293-human TSHR cells activated by Tab01 [5] [nM] | IC50 (nM), cAMP in 293-human TSHR cells activated by Tab02 [5] [nM] | Maximum inhibition rate (%), cAMP in 293-human TSHR cells activated by Tab01 [5] [%] | Maximum inhibition rate (%), cAMP in 293-human TSHR cells activated by Tab02 [5] [%] | EC50 [6] [nM] | Max_MFI [6] | EC50 [7] [nM] | Max_MFI [7] | EC50 [8] [nM] | Max_MFI [8] | Binder | also measured
3 | 2.3 | 180000 | 0.085 | 0.054 | – | – | 2.9 | 106000 | – | – | – | – | – | – | – | – | – | – | humanized antibody cAb01-VH1-DA-VL3 (antibody, human IgG4 S228P, kappa, V domains shown, Humanized from mAb001) VH: EVQLVESGGGLVKPGGSLRLSCAASGFTLSDYYIYWVRQAPGKGLEWVSTISDAVIYTYYADSVKGRFTISRDNAKNSLYLQMNSLRAEDTAVYYCARAYGSSEVMDYWGQGTLVTVSS VL: EIVLTQSPATLSLSPGERATLSCSASSSVSYMHWYQQKPGQAPKRWIYDTSKLASGVPARFSGSGSGTDYTLTISSLEPEDFAVYYCQQWSSNPWTFGGGTKLEIKR | –
4 | – | – | – | – | 121 | 73.5 | – | – | 4.18 | 4.38 | 106 | 100 | 2.43 | 135000 | 2.94 | 189000 | 4.64 | 287000 | hAb01_G4P_V2 (antibody, human IgG4 S228P, kappa, also called hAb01_G4_V2) heavy: EVQLVESGGGLVKPGGSLRLSCAASGFTLSDYYIYWVRQAPGKGLEWVATISDAVIYTYYADSVKGRFTISRDNAKNSLYLQMNSLRAEDTAVYFCARAYGSSEVMDYWGQGTLVTVSSASTKGPSVFPLAPCSRSTSESTAALGCLVKDYFPEPVTVSWNSGALTSGVHTFPAVLQSSGLYSLSSVVTVPSSSLGTKTYTCNVDHKPSNTKVDKRVESKYGPPCPPCPAPEFEGGPSVFLFPPKPKDTLYITREPEVTCVVVDVSQEDPEVQFNWYVDGVEVHNAKTKPREEQFNSTYRVVSVLTVLHQDWLNGKEYKCKVSNKGLPSSIEKTISKAKGQPREPQVYTLPPSQEEMTKNQVSLTCLVKGFYPSDIAVEWESNGQPENNYKTTPPVLDSDGSFFLYSRLTVDKSRWQEGNVFSCSVMHEALHNHYTQKSLSLSLGK light: EIVLTQSPATLSLSPGERATLSCSASSSVSYMHWYQQKPGQAPKRWIYDTSKLASGVPARFSGSGSGTDYTLTISSLEPEDFAVYYCQQWSSNPWTFGGGTKLEIKRTVAAPSVFIFPPSDEQLKSGTASVVCLLNNFYPREAKVQWKVDNALQSGNSQESVTEQDSKDSTYSLSSTLTLSKADYEKHKVYACEVTHQGLSSPVTKSFNRGEC | –
5 | 2.14 | 193000 | – | – | – | – | 2.16 | 117000 | – | – | – | – | – | – | – | – | – | – | humanized antibody cAb01-VH2-DA-VL2 (antibody, human IgG4 S228P, kappa, V domains shown, Humanized from mAb001) VH: EVQLVESGGGLVKPGGSLRLSCAASGFTLSDYYIYWVRQAPGKGLEWVATISDAVIYTYYADSVKGRFTISRDNAKNSLYLQMNSLRAEDTAVYFCARAYGSSEVMDYWGQGTLVTVSS VL: EIVLTQSPATLSLSPGERATLSCSASSSVSYMHWYQQKPGQAPRRWIYDTSKLASGIPARFSGSGSGTDYTLTISSLEPEDFAVYYCQQWSSNPWTFGGGTKLEIKR | EC50 [9]: 3.71 nM; Maximum binding signal [9]: 396000; IC50(nM), cAMP in 293-human TSHR cells activated by Tab01 (30 nM) [10]: 0.28 nM; IC50(nM), cAMP in 293-human TSHR cells activated by Tab02 (6.5 nM) [10]: 0.15 nM; Inhibition rate (%), cAMP in 293-human TSHR cells activated by Tab01 (30 nM) [10]: 76.7%; Inhibition rate (%), cAMP in 293-human TSHR cells activated by Tab02 (6.5 nM) [10]: 86.2%
